Reference: the supplement of paper PMC9112550, “Optimization of the antimicrobial peptide Bac7 by deep mutational scanning” (BMC Biology, 2022)

The sequences below were run on Escherichia coli TOP10 (assay: shrunken log2 fold change of peptide-encoding DNA abundance (4.5 h post-induction vs induction); higher = less antimicrobial activity (less host growth inhibition)). Details: time post-induction: 4.5 h; library: site-saturation at positions 5, 18, 19, 20.
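Note: peptides expressed intracellularly from a pBAD plasmid library in pooled LB shake-flask culture, induced with 0.3% L-arabinose, DNA abundance read by NGS, three biological replicates, DESeq2 with apeglm shrinkage.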

Sequence	shrunken log2 fold change
RRIRERPPRLPRPRPRPLGHPRP	0.187
RRIRLRPPRLPRPRPRPWNVPRP	-0.0513
RRIRWRPPRLPRPRPRPNHCPRP	-0.0525
RRIRVRPPRLPRPRPRPFICPRP	-0.331
RRIRIRPPRLPRPRPRPKHNPRP	-0.349
RRIRTRPPRLPRPRPRPTDPPRP	-0.198
RRIRMRPPRLPRPRPRPSSWPRP	0.477
RRIRARPPRLPRPRPRPSYCPRP	-0.311
RRIRRRPPRLPRPRPRPSEGPRP	0.163
RRIRSRPPRLPRPRPRPGVAPRP	0.42
RRIRDRPPRLPRPRPRPDVNPRP	0.209
RRIRNRPPRLPRPRPRPQRPPRP	0.206
RRIRCRPPRLPRPRPRPNISPRP	0.039
RRIRIRPPRLPRPRPRPREFPRP	0.0231
RRIRQRPPRLPRPRPRPFKCPRP	0.00905
RRIRERPPRLPRPRPRPGEIPRP	0.0895
RRIRTRPPRLPRPRPRPLWNPRP	-0.44
RRIRLRPPRLPRPRPRPLCQPRP	-0.125
RRIRPRPPRLPRPRPRPKAWPRP	-0.0274
RRIRTRPPRLPRPRPRPRSGPRP	0.284
RRIRIRPPRLPRPRPRPYRSPRP	-0.186
RRIRMRPPRLPRPRPRPKRHPRP	0.351
RRIRLRPPRLPRPRPRPGGKPRP	-0.00333
RRIRLRPPRLPRPRPRPFLDPRP	-0.228
RRIRKRPPRLPRPRPRPSERPRP	0.317

Sequence	shrunken log2 fold change
RRIRQRPPRLPRPRPRPSGWPRP	-0.112
RRIRDRPPRLPRPRPRPHQRPRP	0.0159
RRIRRRPPRLPRPRPRPNVMPRP	-0.149
RRIRHRPPRLPRPRPRPAICPRP	-0.218
RRIRIRPPRLPRPRPRPFAYPRP	-0.396
RRIRRRPPRLPRPRPRPDGSPRP	0.0601
RRIRKRPPRLPRPRPRPYLFPRP	-0.0275
RRIRKRPPRLPRPRPRPTDRPRP	0.209
RRIRDRPPRLPRPRPRPWNHPRP	-0.00185
RRIRYRPPRLPRPRPRPYVWPRP	-0.389
RRIRSRPPRLPRPRPRPCPSPRP	0.0411
RRIRERPPRLPRPRPRPAEHPRP	-0.0237
RRIRTRPPRLPRPRPRPDAMPRP	0.248
RRIRARPPRLPRPRPRPKILPRP	-0.168
RRIRIRPPRLPRPRPRPCENPRP	-0.00127
RRIRARPPRLPRPRPRPDWCPRP	0.0911
RRIRSRPPRLPRPRPRPGQGPRP	0.0895
RRIRCRPPRLPRPRPRPCTRPRP	-0.321
RRIRPRPPRLPRPRPRPELEPRP	0.219
RRIRWRPPRLPRPRPRPDVEPRP	0.182
RRIRGRPPRLPRPRPRPITPPRP	-0.0185
RRIRQRPPRLPRPRPRPAMQPRP	0.109
RRIRRRPPRLPRPRPRPLICPRP	0.119
RRIRKRPPRLPRPRPRPVDDPRP	0.508
RRIRMRPPRLPRPRPRPKSPPRP	0.325
